Experimental data published in IntAct's records for PubMed 31515488.

B1: Interleukin-1 receptor-associated kinase 4 (Homo sapiens), Q9NWZ3 (parent)
chain: MNKPITPSTYVRCLNVGLIRKLSDFIDPQEGWKKLAVAIKKPSGDDRYNQFHIRRFEALLQTGKSPTSELLFDWGTTNCTVGDLVDLLIQNEFFAPASLLLPDAVPKTANTLPSKEAITVQQKQMPFCDKDRTLMTPVQNLEQSYMPPDSSSPENKSLEVSDTRFHSFSFYELKNVTNNFDERPISVGGNKMGEGGFGVVYKGYVNNTTVAVKKLAAMVDITTEELKQQFDQEIKVMAKCQHENLVELLGFSSDGDDLCLVYVYMPNGSLLDRLSCLDGTPPLSWHMRCKIAQGAANGINFLHENHHIHRDIKSANILLDEAFTAKISDFGLARASEKFAQTVMTSRIVGTTAYMAPEALRGEITPKSDIYSFGVVLLEIITGLPAVDEHREPQLLLDIKEEIEDEEKTIEDYIDKKMNDADSTSVEAMYSVASQCLHEKKNKRPDIKKVQQLLQEMTAS
B2: Proteasome inhibitor PI31 subunit (Homo sapiens), Q92530 (parent)
chain: MAGLEVLFASAAPAITCRQDALVCFLHWEVVTHGYFGLGVGDQPGPNDKKSELLPAGWNNNKDLYVLRYEYKDGSRKLLVKAITVESSMILNVLEYGSQQVADLTLNLDDYIDAEHLGDFHRTYKNSEELRSRIVSGIITPIHEQWEKANVSSPHREFPPATAREVDPLRIPPHHPHTSRQPPWCDPLGPFVVGGEDLDPFGPRRGGMIVDPLRSGFPRALIDPSSGLPNRLPPGAVPPGARFDPFGPIGTSPPGPNPDHLPPPGYDDMYL
partner: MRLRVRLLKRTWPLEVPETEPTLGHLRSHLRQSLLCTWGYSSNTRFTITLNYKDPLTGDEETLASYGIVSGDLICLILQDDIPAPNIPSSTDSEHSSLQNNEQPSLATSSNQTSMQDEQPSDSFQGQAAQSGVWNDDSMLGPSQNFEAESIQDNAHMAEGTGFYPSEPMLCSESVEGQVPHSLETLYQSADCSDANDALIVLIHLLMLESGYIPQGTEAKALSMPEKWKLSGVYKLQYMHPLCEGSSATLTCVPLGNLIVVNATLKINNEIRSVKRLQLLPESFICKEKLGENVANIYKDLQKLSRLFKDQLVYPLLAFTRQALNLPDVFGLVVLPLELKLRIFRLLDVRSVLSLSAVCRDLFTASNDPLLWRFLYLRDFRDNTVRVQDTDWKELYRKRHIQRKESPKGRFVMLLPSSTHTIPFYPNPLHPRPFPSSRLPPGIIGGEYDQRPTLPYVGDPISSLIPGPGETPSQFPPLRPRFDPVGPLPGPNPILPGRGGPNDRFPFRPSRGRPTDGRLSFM
B3: Proline-rich protein 3 (Homo sapiens), P79522 (parent)
chain: MPKRKKQNHHQPPTQQQPPLPEREETGDEEDGSPIGPPSLLGPPPMANGKPGDPKSALHRGPPGSRGPLIPPLLSLPPPPWGRGPIRRGLGPRSSPYGRGWWGVNAEPPFPGPGHGGPTRGSFHKEQRNPRRLKSWSLIKNTCPPKDDPQVMEDKSDRPVCRHFAKKGHCRYEDLCAFYHPGVNGPPL
partner: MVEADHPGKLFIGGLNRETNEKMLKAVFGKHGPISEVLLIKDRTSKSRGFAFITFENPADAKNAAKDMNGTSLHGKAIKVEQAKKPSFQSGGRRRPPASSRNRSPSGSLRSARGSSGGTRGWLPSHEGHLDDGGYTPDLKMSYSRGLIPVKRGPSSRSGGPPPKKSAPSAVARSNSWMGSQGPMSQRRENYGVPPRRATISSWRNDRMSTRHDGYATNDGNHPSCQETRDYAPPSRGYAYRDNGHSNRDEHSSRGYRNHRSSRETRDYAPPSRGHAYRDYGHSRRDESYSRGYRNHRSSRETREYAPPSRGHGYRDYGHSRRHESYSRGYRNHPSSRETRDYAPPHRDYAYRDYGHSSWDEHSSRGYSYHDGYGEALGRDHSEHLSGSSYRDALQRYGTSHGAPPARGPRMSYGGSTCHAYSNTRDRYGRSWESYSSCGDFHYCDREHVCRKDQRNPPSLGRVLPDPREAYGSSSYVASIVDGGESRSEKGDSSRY
B4: Notch homolog 2 N-terminal-like protein A (Homo sapiens), Q7Z3S9 (parent)
chain: MCVTYHNGTGYCKCPEGFLGEYCQHRDPCEKNRCQNGGTCVAQAMLGKATCRCASGFTGEDCQYSTSHPCFVSRPCLNGGTCHMLSRDTYECTCQVGFTGKECQWTDACLSHPCANGSTCTTVANQFSCKCLTGFTGQKCETDVNECDIPGHCQHGGTCLNLPGSYQCQCLQGFTGQYCDSLYVPCAPSPCVNGGTCRQTGDFTFECNCLPETVRRGTELWERDREVWNGKEHDEN
partner: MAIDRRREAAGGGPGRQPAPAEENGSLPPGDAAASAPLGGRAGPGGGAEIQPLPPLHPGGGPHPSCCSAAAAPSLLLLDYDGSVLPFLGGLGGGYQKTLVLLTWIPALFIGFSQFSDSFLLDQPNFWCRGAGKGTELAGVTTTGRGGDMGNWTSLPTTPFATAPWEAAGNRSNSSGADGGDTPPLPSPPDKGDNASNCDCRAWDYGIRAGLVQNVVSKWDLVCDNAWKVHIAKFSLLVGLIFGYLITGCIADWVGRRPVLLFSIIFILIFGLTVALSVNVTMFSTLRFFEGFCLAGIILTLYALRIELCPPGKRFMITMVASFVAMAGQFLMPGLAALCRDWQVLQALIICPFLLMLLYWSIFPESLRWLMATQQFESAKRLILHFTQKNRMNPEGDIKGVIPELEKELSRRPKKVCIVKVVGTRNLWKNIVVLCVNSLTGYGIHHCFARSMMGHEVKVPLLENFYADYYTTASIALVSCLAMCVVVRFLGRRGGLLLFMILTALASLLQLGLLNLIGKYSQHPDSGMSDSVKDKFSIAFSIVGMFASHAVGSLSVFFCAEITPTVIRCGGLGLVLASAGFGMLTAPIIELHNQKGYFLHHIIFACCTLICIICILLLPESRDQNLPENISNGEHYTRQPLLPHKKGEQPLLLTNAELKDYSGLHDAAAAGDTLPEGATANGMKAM
B5: Notch homolog 2 N-terminal-like protein A (Homo sapiens), Q7Z3S9 (parent)
chain: B4 chain
partner: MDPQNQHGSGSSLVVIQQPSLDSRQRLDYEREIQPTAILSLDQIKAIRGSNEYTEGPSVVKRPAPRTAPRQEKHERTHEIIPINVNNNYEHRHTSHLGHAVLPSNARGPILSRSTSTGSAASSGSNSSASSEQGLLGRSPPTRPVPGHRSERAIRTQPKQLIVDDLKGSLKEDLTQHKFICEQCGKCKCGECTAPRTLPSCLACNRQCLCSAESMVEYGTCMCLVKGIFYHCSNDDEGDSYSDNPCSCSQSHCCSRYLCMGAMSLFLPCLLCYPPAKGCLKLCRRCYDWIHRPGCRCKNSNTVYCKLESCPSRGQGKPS

Variants of: B1
Conditions: with myd88_human MYD88, Q99836
Sequence of myd88_human MYD88, Q99836 (Q99836 whole entry): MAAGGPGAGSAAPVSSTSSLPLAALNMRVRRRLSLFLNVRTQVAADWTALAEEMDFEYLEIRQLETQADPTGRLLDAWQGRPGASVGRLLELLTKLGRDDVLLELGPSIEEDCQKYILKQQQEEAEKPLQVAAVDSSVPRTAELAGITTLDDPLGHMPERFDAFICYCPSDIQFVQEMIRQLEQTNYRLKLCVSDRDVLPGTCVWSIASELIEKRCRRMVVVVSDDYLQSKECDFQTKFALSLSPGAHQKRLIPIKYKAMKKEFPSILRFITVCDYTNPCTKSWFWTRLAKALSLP

effect of a mutation on the interaction | Variant
disrupting interaction strength | G298D
disrupting interaction strength | R12C
disrupting interaction strength | R12H
with no effect | A428T
with no effect | R20W
disrupting interaction strength | T76I

Variants of: B2
Conditions: with fbx7_human FBXO7, Q9Y3I1

effect of a mutation on the interaction | Variant
with no effect | V192A

Variants of: B3
Conditions: with rby1f_human RBMY1F

effect of a mutation on the interaction | Variant
with no effect | R87W

Variants of: B4
Conditions: with SLC22A23, A1A5C7

effect of a mutation on the interaction | Variant
with no effect | A115T
with no effect | R74Q

Variants of: B5
Conditions: with spy1_human SPRY1, O43609

effect of a mutation on the interaction | Variant
with no effect | R74Q
